{"source": "paper PMC13006735", "about": "(Research, 2026)", "binders": {"B1": {"name": " (antibody, V domains shown)", "VH": "EVQLVESGGGLVKPGGSLRLSCAASGFTFSNAWMSWVRQAPGKGLEWVGRIKSKTDGGTIDYAAPVKGRFTISRDDSKNTVYLQMTSLKTEDTAVYYCTTYTEDMRYFDWLLRGGETFDYWGQGTLVTVSS", "VL": "DIRLTQSPSSLSASVGDRVTITCRASQYISTYLNWYQQKPGKAPKLLIYAAYNLQSGVPSRFSGSRFGTDFSLTISSLQPEDFATYHCQQSYSTPGRYTFGQGTKVEIK", "notes": "also called H27Q/S52Y/G66R-LC variant"}, "B2": {"name": " (antibody, V domains shown)", "VH": "B1 VH", "VL": "B1 VL with Q27H, A50Y, L54R, R66G", "notes": "also called A50Y/S52Y/L54R-LC variant"}}, "target": "Sudan virus (SUDV) glycoprotein GP (Sudan ebolavirus, strain  for …, UniProt Q7T9D9)", "test": "SPR", "conditions": "both partners purified", "note": "Numbering of substitutions follows the chain as printed. Names may count otherwise.", "data": [{"binder": "B1", "values": [{"measurement": "Kd", "value": 0.349, "unit": "nM"}]}, {"binder": "B2", "values": [{"measurement": "Kd", "value": 0.248, "unit": "nM"}]}]}
